Target: T1, Y1R L26^NA/F28^NA mutant (printed L28^NA/F28^NA) (human, UniProt P25929 1-384, L26^N to A (the mutant's label is printed L28^NA; the same sentence names the …)
T1 sequence (looked up): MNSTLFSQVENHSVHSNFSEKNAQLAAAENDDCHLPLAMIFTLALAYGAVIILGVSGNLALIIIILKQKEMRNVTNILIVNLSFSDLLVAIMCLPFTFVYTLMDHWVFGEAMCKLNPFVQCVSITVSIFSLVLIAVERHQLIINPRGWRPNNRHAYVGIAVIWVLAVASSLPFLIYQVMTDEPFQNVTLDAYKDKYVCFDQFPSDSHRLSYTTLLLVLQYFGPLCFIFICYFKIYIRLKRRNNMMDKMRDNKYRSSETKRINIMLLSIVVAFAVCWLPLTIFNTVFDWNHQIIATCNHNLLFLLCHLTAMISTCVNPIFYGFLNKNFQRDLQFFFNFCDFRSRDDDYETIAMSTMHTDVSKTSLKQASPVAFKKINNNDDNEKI
Test: cell-based or functional assay

B1: neuropeptide Y (NPY) (peptide)
peptide: not shown
modifications: C-terminal amide (amidated C-terminal residue Y36)
- NPY signalling, increase in EC50 against wild-type Y1R: 2.8 fold
